# Laboratory results taken from PMC3568192 (Journal of molecular biology, 2012).
# Where no end group is shown, it is not given here.
# T1: FBF-2 (164-575) (C. elegans, UniProt Q09312 164-575)
# T1 sequence (looked up): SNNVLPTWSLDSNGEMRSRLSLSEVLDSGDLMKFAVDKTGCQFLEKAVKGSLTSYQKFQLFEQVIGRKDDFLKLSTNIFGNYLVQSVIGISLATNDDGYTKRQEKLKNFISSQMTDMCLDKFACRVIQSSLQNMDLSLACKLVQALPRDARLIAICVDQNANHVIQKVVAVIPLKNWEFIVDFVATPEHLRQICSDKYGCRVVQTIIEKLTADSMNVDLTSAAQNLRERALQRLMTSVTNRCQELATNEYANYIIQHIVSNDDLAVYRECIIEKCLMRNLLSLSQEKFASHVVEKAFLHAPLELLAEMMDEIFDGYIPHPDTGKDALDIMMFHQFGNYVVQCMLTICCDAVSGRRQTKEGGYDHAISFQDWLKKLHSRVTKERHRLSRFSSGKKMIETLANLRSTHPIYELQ
# T2: FBF-1 (164-566) (C. elegans, UniProt Q9N5M6 164-566)
# T2 sequence (looked up): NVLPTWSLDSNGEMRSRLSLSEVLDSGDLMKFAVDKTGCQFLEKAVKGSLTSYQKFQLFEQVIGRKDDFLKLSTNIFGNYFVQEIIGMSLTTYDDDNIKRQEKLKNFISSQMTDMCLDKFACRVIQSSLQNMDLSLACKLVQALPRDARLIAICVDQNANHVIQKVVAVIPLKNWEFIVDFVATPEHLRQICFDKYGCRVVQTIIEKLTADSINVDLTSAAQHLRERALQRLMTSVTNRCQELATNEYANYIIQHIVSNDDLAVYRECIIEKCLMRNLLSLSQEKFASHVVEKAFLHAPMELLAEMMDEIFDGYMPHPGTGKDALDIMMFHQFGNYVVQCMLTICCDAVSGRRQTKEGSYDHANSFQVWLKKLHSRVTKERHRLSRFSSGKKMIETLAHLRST
# T3: FBF-2 (164-566) (C. elegans, UniProt Q09312 164-566)
# T3 sequence (looked up): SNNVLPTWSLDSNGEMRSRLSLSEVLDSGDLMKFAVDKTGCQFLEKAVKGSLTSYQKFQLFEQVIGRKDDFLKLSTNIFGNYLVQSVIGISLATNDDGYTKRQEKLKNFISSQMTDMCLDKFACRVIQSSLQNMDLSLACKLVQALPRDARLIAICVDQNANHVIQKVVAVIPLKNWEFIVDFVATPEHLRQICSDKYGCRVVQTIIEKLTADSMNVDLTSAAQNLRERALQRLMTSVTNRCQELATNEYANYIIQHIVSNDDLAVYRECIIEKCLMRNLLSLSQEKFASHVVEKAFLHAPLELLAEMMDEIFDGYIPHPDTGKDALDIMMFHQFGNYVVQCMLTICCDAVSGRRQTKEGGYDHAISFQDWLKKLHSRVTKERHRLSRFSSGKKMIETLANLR
# T4: FBF-2 (164-575) (Caenorhabditis elegans, UniProt Q09312 164-575)
# T4 sequence: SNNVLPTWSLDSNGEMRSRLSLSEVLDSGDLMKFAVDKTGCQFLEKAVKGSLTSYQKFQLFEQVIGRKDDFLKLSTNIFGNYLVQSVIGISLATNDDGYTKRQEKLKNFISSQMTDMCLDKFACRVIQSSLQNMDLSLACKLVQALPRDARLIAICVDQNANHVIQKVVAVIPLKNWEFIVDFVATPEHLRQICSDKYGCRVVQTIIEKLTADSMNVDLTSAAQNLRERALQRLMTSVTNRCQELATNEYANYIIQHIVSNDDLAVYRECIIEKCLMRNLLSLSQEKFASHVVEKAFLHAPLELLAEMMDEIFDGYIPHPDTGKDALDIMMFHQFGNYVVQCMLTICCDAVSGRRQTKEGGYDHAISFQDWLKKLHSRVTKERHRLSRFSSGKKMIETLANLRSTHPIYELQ
# T5: FBF-2 (164-575);MBP-CPB-1 (1-80) (Caenorhabditis elegans;Caenorhabditis …, UniProt Q09312;Q03571 164-575;1-80, |)
# T5 sequence 1: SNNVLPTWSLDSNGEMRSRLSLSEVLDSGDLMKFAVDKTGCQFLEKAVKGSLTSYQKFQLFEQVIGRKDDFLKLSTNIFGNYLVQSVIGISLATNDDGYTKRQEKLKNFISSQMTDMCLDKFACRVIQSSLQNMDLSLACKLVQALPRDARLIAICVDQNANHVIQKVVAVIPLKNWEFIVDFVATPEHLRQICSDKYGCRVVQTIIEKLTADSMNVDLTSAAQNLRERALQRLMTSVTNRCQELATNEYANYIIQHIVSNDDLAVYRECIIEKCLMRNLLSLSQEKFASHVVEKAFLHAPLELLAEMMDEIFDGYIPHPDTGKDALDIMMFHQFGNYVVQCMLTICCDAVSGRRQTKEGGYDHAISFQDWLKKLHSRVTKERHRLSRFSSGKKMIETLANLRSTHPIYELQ
# T5 sequence 2: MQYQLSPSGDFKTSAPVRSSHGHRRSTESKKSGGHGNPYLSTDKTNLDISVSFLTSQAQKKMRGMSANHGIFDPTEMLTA
# B1: CPB-1(19-80) (domain or fragment, C. elegans, UniProt Q03571 19-80, looked up)
# chain: SSHGHRRSTESKKSGGHGNPYLSTDKTNLDISVSFLTSQAQKKMRGMSANHGIFDPTEMLTA
# B2: CPB-1(19-80) L47A (domain or fragment, C. elegans, UniProt Q03571 19-80, looked up)
# chain: SSHGHRRSTESKKSGGHGNPYLSTDKTNADISVSFLTSQAQKKMRGMSANHGIFDPTEMLTA
# B3: CPB-1(19-80) T45A (domain or fragment, C. elegans, UniProt Q03571 19-80, looked up)
# chain: SSHGHRRSTESKKSGGHGNPYLSTDKANLDISVSFLTSQAQKKMRGMSANHGIFDPTEMLTA
# B4: CPB-1(19-80) I49A (domain or fragment, C. elegans, UniProt Q03571 19-80, looked up)
# chain: SSHGHRRSTESKKSGGHGNPYLSTDKTNLDASVSFLTSQAQKKMRGMSANHGIFDPTEMLTA
# B5: CPB-1(19-80) L40A (domain or fragment, C. elegans, UniProt Q03571 19-80, looked up)
# chain: SSHGHRRSTESKKSGGHGNPYASTDKTNLDISVSFLTSQAQKKMRGMSANHGIFDPTEMLTA
# B6: CPB-1(19-80) K44A (domain or fragment, C. elegans, UniProt Q03571 19-80, looked up)
# chain: SSHGHRRSTESKKSGGHGNPYLSTDATNLDISVSFLTSQAQKKMRGMSANHGIFDPTEMLTA
# B7: CPB-1(1-80) (domain or fragment, C. elegans, UniProt Q03571 1-80, looked up)
# chain: MQYQLSPSGDFKTSAPVRSSHGHRRSTESKKSGGHGNPYLSTDKTNLDISVSFLTSQAQKKMRGMSANHGIFDPTEMLTA
# B8: FBF-2 (164-575) (domain or fragment)
# chain: SNNVLPTWSLDSNGEMRSRLSLSEVLDSGDLMKFAVDKTGCQFLEKAVKGSLTSYQKFQLFEQVIGRKDDFLKLSTNIFGNYLVQSVIGISLATNDDGYTKRQEKLKNFISSQMTDMCLDKFACRVIQSSLQNMDLSLACKLVQALPRDARLIAICVDQNANHVIQKVVAVIPLKNWEFIVDFVATPEHLRQICSDKYGCRVVQTIIEKLTADSMNVDLTSAAQNLRERALQRLMTSVTNRCQELATNEYANYIIQHIVSNDDLAVYRECIIEKCLMRNLLSLSQEKFASHVVEKAFLHAPLELLAEMMDEIFDGYIPHPDTGKDALDIMMFHQFGNYVVQCMLTICCDAVSGRRQTKEGGYDHAISFQDWLKKLHSRVTKERHRLSRFSSGKKMIETLANLRSTHPIYELQ
# B9: FBF-2 (164-575) I480A (domain or fragment)
# chain: SNNVLPTWSLDSNGEMRSRLSLSEVLDSGDLMKFAVDKTGCQFLEKAVKGSLTSYQKFQLFEQVIGRKDDFLKLSTNIFGNYLVQSVIGISLATNDDGYTKRQEKLKNFISSQMTDMCLDKFACRVIQSSLQNMDLSLACKLVQALPRDARLIAICVDQNANHVIQKVVAVIPLKNWEFIVDFVATPEHLRQICSDKYGCRVVQTIIEKLTADSMNVDLTSAAQNLRERALQRLMTSVTNRCQELATNEYANYIIQHIVSNDDLAVYRECIIEKCLMRNLLSLSQEKFASHVVEKAFLHAPLELLAEMMDEIFDGYAPHPDTGKDALDIMMFHQFGNYVVQCMLTICCDAVSGRRQTKEGGYDHAISFQDWLKKLHSRVTKERHRLSRFSSGKKMIETLANLRSTHPIYELQ
# B10: FBF-2 (164-575) T485A (domain or fragment)
# chain: SNNVLPTWSLDSNGEMRSRLSLSEVLDSGDLMKFAVDKTGCQFLEKAVKGSLTSYQKFQLFEQVIGRKDDFLKLSTNIFGNYLVQSVIGISLATNDDGYTKRQEKLKNFISSQMTDMCLDKFACRVIQSSLQNMDLSLACKLVQALPRDARLIAICVDQNANHVIQKVVAVIPLKNWEFIVDFVATPEHLRQICSDKYGCRVVQTIIEKLTADSMNVDLTSAAQNLRERALQRLMTSVTNRCQELATNEYANYIIQHIVSNDDLAVYRECIIEKCLMRNLLSLSQEKFASHVVEKAFLHAPLELLAEMMDEIFDGYIPHPDAGKDALDIMMFHQFGNYVVQCMLTICCDAVSGRRQTKEGGYDHAISFQDWLKKLHSRVTKERHRLSRFSSGKKMIETLANLRSTHPIYELQ
# B11: FBF-2 (164-575) Y479A (domain or fragment)
# chain: SNNVLPTWSLDSNGEMRSRLSLSEVLDSGDLMKFAVDKTGCQFLEKAVKGSLTSYQKFQLFEQVIGRKDDFLKLSTNIFGNYLVQSVIGISLATNDDGYTKRQEKLKNFISSQMTDMCLDKFACRVIQSSLQNMDLSLACKLVQALPRDARLIAICVDQNANHVIQKVVAVIPLKNWEFIVDFVATPEHLRQICSDKYGCRVVQTIIEKLTADSMNVDLTSAAQNLRERALQRLMTSVTNRCQELATNEYANYIIQHIVSNDDLAVYRECIIEKCLMRNLLSLSQEKFASHVVEKAFLHAPLELLAEMMDEIFDGAIPHPDTGKDALDIMMFHQFGNYVVQCMLTICCDAVSGRRQTKEGGYDHAISFQDWLKKLHSRVTKERHRLSRFSSGKKMIETLANLRSTHPIYELQ
# Experiments:
# FBF-2 (164-575) [1] = biological target: T1, FBF-2 (164-575); test: fluorescence polarisation
# FBF-1 (164-566) [2] = biological target: T2, FBF-1 (164-566); test: cross-linking
# FBF-2 (164-566) [3] = biological target: T3, FBF-2 (164-566); test: cross-linking
# FBF-2 (164-575) [4] = biological target: T4, FBF-2 (164-575); test: EMSA
# [5] = biological target: T5, FBF-2 (164-575);MBP-CPB-1 (1-80); test: EMSA
# FBF-2 (164-575) [6] = biological target: T1, FBF-2 (164-575); test: NMR, [15N,1H]-HSQC free against bound
# [7] = biological target: fluorescently labeled wild-type CPB-1(19-80) (C. elegans) (UniProt Q03571); test: fluorescence polarisation
# FBF-1 (164-566) [8] = biological target: T2, FBF-1 (164-566); test: pull-down
# FBF-2 (164-566) [9] = biological target: T3, FBF-2 (164-566); test: pull-down
binder,measurement,setting,value
B1,IC50,FBF-2 (164-575) [1],1150 ± 50 nM
B2,binding result,FBF-2 (164-575) [1],binds
B3,binding result,FBF-2 (164-575) [1],binds
B4,binding result,FBF-2 (164-575) [1],binds
B5,binding result,FBF-2 (164-575) [1],binds
B6,binding result,FBF-2 (164-575) [1],binds
B7,stoichiometry N,FBF-1 (164-566) [2],1
same,stoichiometry N,FBF-2 (164-566) [3],1
CGAAAUAAACAUUUUGUACCAUUCAGUC (ssRNA) [cyb-1 RNA],Kd,FBF-2 (164-575) [4],24 nM
same,Kd,[5],5.8 nM
"SGGHGNPYLSTDKTNLDISVSFLTSQAQKKMRGMSANHGIFDPTEMLTA (domain or fragment, C. elegans, UniProt Q03571 32-80, looked up, also: 15N labeled) [15N-labeled CPB-1(32-80)]",binding result,FBF-2 (164-575) [6],binds
B8,Kd,[7],49 nM
B9,Kd,[7],778 nM
B10,Kd,[7],1260 nM
B11,fold increase in Kd relative to wild-type FBF,[7],> 60 fold
"SGGHGNPYLSTDKTNLDISVSFLTSQAQK (domain or fragment, C. elegans, UniProt Q03571 32-60, looked up) [CPB-1(32-60)]",binding result,FBF-1 (164-566) [8],binds
same,binding result,FBF-2 (164-566) [9],binds
